# According to article PMC6614797:
# Where two headings read alike, the source gives them in different places.
# B1: rrnG RNA (structured_RNA)
# RNA: GGGCCGCGCCGCUGAGAAAAAGCGAAGCGGCACUGCUCUUUAACAAUUUAUCAGACAAUCUGUGUGGG
# B2: rrnG-EC scaffold (T-DNA, NT-DNA, rrnG RNA) (mixed)
# DNA 1: ATCCGTATCTTCGAGTGCCCACACAGATTGTCTCATAAATTGTTAAAGAGCAGTGCCGC
# DNA 2: GCGGCACTGCTCTTTAACAATTTATCAGACTTGTCCACGCTCGTCTCGAAGATACGGAT
# RNA: GGGCCGCGCCGCUGAGAAAAAGCGAAGCGGCACUGCUCUUUAACAAUUUAUCAGACAAUCUGUGUGGG
# Assays:
# Experiment in all cases: analytical size exclusion chromatography
# SuhB [1] = target: T1, SuhB (Escherichia coli, UniProt P0ADG4 1-267)
# [2] = target: NusB;NusEdelta (S10 lacking the ribosome binding loop) (Escherichia coli;Escherichia coli, UniProt P0A780;P0A7R5 1-139;1-45+68-103, |internal_change)
# SuhB [3] = target: T1, SuhB; remark: listed apart in the source
# [4] = target: RNA polymerase;NusA;NusB;NusEdelta (S10 lacking the ribosome binding loop);NusG;SuhB (Escherichia coli;Escherichia …, UniProt P0A7Z4;P0A8V2;P0A8T7;P0A800;P0AFF6;P0A780;P0A7R5;P0AFG0;P0ADG4 …, |||internal_change||)
binder,measurement,setting,value
B1,binding result,SuhB [1],binds
same,binding result,[2],binds
UUUUUGAGUCUGCGGCGCGCG (ssRNA) [random RNA],binding result,SuhB [3],no binding
B2,binding result,[4],binds
